{"source": "the RNAGym collection of RNA variant scans (doi:10.7554/elife.90254)", "parents": {"B1": {"name": "LINE1-full (parent)", "chain": "UACGUAGGUGGUUUUCCCCUGAUAGUGCUAAGGGGGCCUGGAAGUUUGGACUGGGCAGAGCUCAACACAGCGUGGCAAAGUGGCUGUGGCUAGACUGCCUCUCUGGAUUCCUCGUCACUCAGCAGGGCAUCUCUGAGAGAAAUGCC"}}}
{"variants_of": "B1", "assay": "self-cleavage, relative activity (ratio to wild type); higher = more cleavage; in vitro, sequencing; the parent is a self-cleaving ribozyme"}
{"variant": "A59C A117G", "self-cleavage": 2.7}
{"variant": "A59C A138U", "self-cleavage": 1.62}
{"variant": "A59C A142G", "self-cleavage": 0.57}
{"variant": "A59C C146U", "self-cleavage": 1.23}
{"variant": "A59C U73A", "self-cleavage": 1.45}
{"variant": "A59C U102A", "self-cleavage": 1.1}
{"variant": "A59C U102C", "self-cleavage": 2.07}
{"variant": "A59C U134A", "self-cleavage": 1.46}
{"variant": "A59G", "self-cleavage": 0.09}
{"variant": "A59G A64C", "self-cleavage": 0}
{"variant": "A59G A64G", "self-cleavage": 0.06}
{"variant": "A59G A64U", "self-cleavage": 0.08}
{"variant": "A59G A65U", "self-cleavage": 0.08}
{"variant": "A59G A67U", "self-cleavage": 0.06}
{"variant": "A59G A69U", "self-cleavage": 0.06}
{"variant": "A59G A77C", "self-cleavage": 0.33}
{"variant": "A59G A77U", "self-cleavage": 0.05}
{"variant": "A59G A78U", "self-cleavage": 0.1}
{"variant": "A59G A79U", "self-cleavage": 0.07}
{"variant": "A59G A92C", "self-cleavage": 0.14}
{"variant": "A59G A92U", "self-cleavage": 0.1}
{"variant": "A59G A94C", "self-cleavage": 0.29}
{"variant": "A59G A107G", "self-cleavage": 0.09}
{"variant": "A59G A117C", "self-cleavage": 0.2}
{"variant": "A59G A117G", "self-cleavage": 0.18}
{"variant": "A59G A124G", "self-cleavage": 0.13}
{"variant": "A59G A129U", "self-cleavage": 0.19}
{"variant": "A59G A136U", "self-cleavage": 0.09}
{"variant": "A59G A138G", "self-cleavage": 0.1}
{"variant": "A59G C61A", "self-cleavage": 0.03}
{"variant": "A59G C71U", "self-cleavage": 0.04}
{"variant": "A59G C76U", "self-cleavage": 0.12}
{"variant": "A59G C84A", "self-cleavage": 0.04}
{"variant": "A59G C90U", "self-cleavage": 0.03}
{"variant": "A59G C95A", "self-cleavage": 0.01}
{"variant": "A59G C103U", "self-cleavage": 0.06}
{"variant": "A59G C113A", "self-cleavage": 0.07}
{"variant": "A59G C113U", "self-cleavage": 0.06}
{"variant": "A59G C123U", "self-cleavage": 0.05}
{"variant": "A59G C133G", "self-cleavage": 0.12}
{"variant": "A59G G60C", "self-cleavage": 0.07}
{"variant": "A59G G80A", "self-cleavage": 0.08}
{"variant": "A59G G88A", "self-cleavage": 0.06}
{"variant": "A59G G97A", "self-cleavage": 0.03}
{"variant": "A59G G106A", "self-cleavage": 0.06}
{"variant": "A59G G114U", "self-cleavage": 0.07}
{"variant": "A59G G125C", "self-cleavage": 0.2}
{"variant": "A59G G126U", "self-cleavage": 0.11}
{"variant": "A59G G135A", "self-cleavage": 0.08}
{"variant": "A59G U62A", "self-cleavage": 0.06}
{"variant": "A59G U62C", "self-cleavage": 0.1}
{"variant": "A59G U73A", "self-cleavage": 0.08}
{"variant": "A59G U73G", "self-cleavage": 0.12}
{"variant": "A59G U81G", "self-cleavage": 0.09}
{"variant": "A59G U85A", "self-cleavage": 0.04}
{"variant": "A59G U85C", "self-cleavage": 0.09}
{"variant": "A59G U85G", "self-cleavage": 0.14}
{"variant": "A59G U87A", "self-cleavage": 0.06}
{"variant": "A59G U87C", "self-cleavage": 0.11}
{"variant": "A59G U87G", "self-cleavage": 0}
{"variant": "A59G U96C", "self-cleavage": 0.04}
{"variant": "A59G U96G", "self-cleavage": 0}
{"variant": "A59G U100A", "self-cleavage": 0.07}
{"variant": "A59G U100C", "self-cleavage": 0.16}
{"variant": "A59G U102A", "self-cleavage": 0}
{"variant": "A59G U102C", "self-cleavage": 0.1}
{"variant": "A59G U104C", "self-cleavage": 0.15}
{"variant": "A59G U104G", "self-cleavage": 0.08}
{"variant": "A59G U108A", "self-cleavage": 0.11}
{"variant": "A59G U108C", "self-cleavage": 0.11}
{"variant": "A59G U109A", "self-cleavage": 0.09}
{"variant": "A59G U115A", "self-cleavage": 0.11}
{"variant": "A59G U115C", "self-cleavage": 0.07}
{"variant": "A59G U119A", "self-cleavage": 0.09}
{"variant": "A59G U119C", "self-cleavage": 0.13}
{"variant": "A59G U130A", "self-cleavage": 0.1}
{"variant": "A59G U130C", "self-cleavage": 0.17}
{"variant": "A59G U132C", "self-cleavage": 0.11}
{"variant": "A59G U134C", "self-cleavage": 0.15}
{"variant": "A59G U143C", "self-cleavage": 0.1}
{"variant": "A59G U143G", "self-cleavage": 0.03}
{"variant": "A59U", "self-cleavage": 0.8}
{"variant": "A59U A64U", "self-cleavage": 0.62}
